In patent publication US20250223280A1:
Bridges are numbered along the chain shown (N, C = ends). [ ]: non-standard residue; d: D form. Pro(4S-NH2) = N[C@@H]1CN[C@H](C(=O)O)C1

B1: Compound 52 (peptide)
peptide: cyclo(PDCAWHLGELVWCT[dP])
modifications: disulfide 3-13; not fully specified (residue 1); also: conjugate: hex-5-ynoyl peptide clicked to azide A2
B2: Compound 53 (peptide)
peptide: cyclo(PDCAWHLGELVWCT[dP])
modifications: disulfide 3-13; not fully specified (residue 1); also: conjugate: hex-5-ynoyl peptide clicked to azide A18
B3: Intermediate 4 (peptide)
peptide: PDCAWHLGELVWCTP
modifications: residue 1 = (2S,4S)-4-aminoproline; residue 15 = D-Pro; backbone cyclised head to tail; disulfide Cys3-Cys13; 4-amino group of residue 1 acylated with PEG4-propanoyl capped by hex-5-ynamide
B4: Intermediate 5 (peptide)
peptide: PDCAWHLGELVWCTP
modifications: residue 1 = (2S,4S)-4-aminoproline (free 4-amino group); residue 15 = D-Pro; backbone cyclised head to tail; disulfide Cys3-Cys13
B5: Intermediate 6 (peptide)
peptide: PDCAWHLGELVWCTP
modifications: residue 1 = (2S,4S)-4-aminoproline; residue 15 = D-Pro; backbone cyclised head to tail; disulfide Cys3-Cys13; 4-amino group of residue 1 acylated with PEG2-propanoyl capped by hex-5-ynamide
B6: Intermediate 7 (peptide)
peptide: PDCAWHLGELVWCTP
modifications: residue 1 = (2S,4S)-4-aminoproline; residue 15 = D-Pro; backbone cyclised head to tail; disulfide Cys3-Cys13; 4-amino group of residue 1 acylated with 3-(2-(hex-5-ynamido)ethoxy)propanoyl
B7: Intermediate 12 (peptide)
peptide: cyclo([Pro(4S-NH2)]ACAWHLGELVWCT[dP])
modifications: disulfide 3-13
SMILES: CC(C)C[C@@H]1NC(=O)[C@H](Cc2c[nH]cn2)NC(=O)[C@H](Cc2c[nH]c3ccccc23)NC(=O)[C@H](C)NC(=O)[C@@H]2CSSC[C@H](NC(=O)[C@H](Cc3c[nH]c4ccccc34)NC(=O)[C@H](C(C)C)NC(=O)[C@H](CC(C)C)NC(=O)[C@H](CCC(=O)O)NC(=O)CNC1=O)C(=O)N[C@@H]([C@@H](C)O)C(=O)N1CCC[C@@H]1C(=O)N1C[C@@H](N)C[C@H]1C(=O)N[C@@H](C)C(=O)N2
B8: Intermediate 13 (peptide)
peptide: cyclo([Pro(4S-NH2)]NCAWHLGELVWCT[dP])
modifications: disulfide 3-13
SMILES: CC(C)C[C@@H]1NC(=O)[C@H](Cc2c[nH]cn2)NC(=O)[C@H](Cc2c[nH]c3ccccc23)NC(=O)[C@H](C)NC(=O)[C@@H]2CSSC[C@H](NC(=O)[C@H](Cc3c[nH]c4ccccc34)NC(=O)[C@H](C(C)C)NC(=O)[C@H](CC(C)C)NC(=O)[C@H](CCC(=O)O)NC(=O)CNC1=O)C(=O)N[C@@H]([C@@H](C)O)C(=O)N1CCC[C@@H]1C(=O)N1C[C@@H](N)C[C@H]1C(=O)N[C@@H](CC(N)=O)C(=O)N2
B9: Intermediate 15 (peptide)
peptide: cyclo([Pro(4S-NH2)]ACSWHLGELVWCT[dP])
modifications: disulfide 3-13
SMILES: CC(C)C[C@@H]1NC(=O)[C@H](Cc2c[nH]cn2)NC(=O)[C@H](Cc2c[nH]c3ccccc23)NC(=O)[C@H](CO)NC(=O)[C@@H]2CSSC[C@H](NC(=O)[C@H](Cc3c[nH]c4ccccc34)NC(=O)[C@H](C(C)C)NC(=O)[C@H](CC(C)C)NC(=O)[C@H](CCC(=O)O)NC(=O)CNC1=O)C(=O)N[C@@H]([C@@H](C)O)C(=O)N1CCC[C@@H]1C(=O)N1C[C@@H](N)C[C@H]1C(=O)N[C@@H](C)C(=O)N2
B10: Compound 61 (peptide)
peptide: cyclo(PDCAWHLGELVWCT[dP])
modifications: disulfide 3-13; not fully specified (residue 1); also: conjugate: Intermediate 11 acylated with phenoxyacetic acid TFP ester carrying one 6-(trifluoromethyl)pyrazin-2-ylamino sugar
B11: Compound 63 (peptide)
peptide: cyclo(PDCAWHLGELVWCT[dP])
modifications: disulfide 3-13; not fully specified (residue 1); also: conjugate from starting material A40
B12: Compound 64 (peptide)
peptide: cyclo(PDCAWHLGELVWCT[dP])
modifications: disulfide 3-13; not fully specified (residue 1); also: conjugate from starting material A125
B13: Compound 65 (peptide)
peptide: cyclo(PDCAWHLGELVWCT[dP])
modifications: disulfide 3-13; not fully specified (residue 1); also: conjugate from starting material A137, ligand number not given here
B14: Compound 66 (peptide)
peptide: cyclo(PDCAWHLGELVWCT[dP])
modifications: disulfide 3-13; not fully specified (residue 1); also: conjugate from starting material A138
B15: Compound 67 (peptide)
peptide: cyclo(PDCAWHLGELVWCT[dP])
modifications: disulfide 3-13; not fully specified (residue 1); also: conjugate from starting material A139
B16: Compound 68 (peptide)
peptide: cyclo(PDCAWHLGELVWCT[dP])
modifications: disulfide 3-13; not fully specified (residue 1); also: 4-amino of residue 1 acylated with 4-(4-((4-(sugar-methyl)piperazin-1-yl)methyl)piperidin-1-yl)benzoic acid linker to ASGPR ligand (A140), one 6-(trifluoromethyl)pyrazin-2-ylamino sugar
B17: Compound 69 (peptide)
peptide: cyclo(PDCAWHLGELVWCT[dP])
modifications: disulfide 3-13; not fully specified (residue 1); also: conjugate from starting material A141
B18: Compound 72 (peptide)
peptide: cyclo(PDCAWHLGELVWCT[dP])
modifications: disulfide 3-13; not fully specified (residue 1); also: conjugate from starting material A144
B19: Intermediate 14 (peptide)
peptide: cyclo([Pro(4S-NH2)]DCSWHLGELVWCT[dP])
modifications: disulfide 3-13
SMILES: CC(C)C[C@@H]1NC(=O)[C@H](Cc2c[nH]cn2)NC(=O)[C@H](Cc2c[nH]c3ccccc23)NC(=O)[C@H](CO)NC(=O)[C@@H]2CSSC[C@H](NC(=O)[C@H](Cc3c[nH]c4ccccc34)NC(=O)[C@H](C(C)C)NC(=O)[C@H](CC(C)C)NC(=O)[C@H](CCC(=O)O)NC(=O)CNC1=O)C(=O)N[C@@H]([C@@H](C)O)C(=O)N1CCC[C@@H]1C(=O)N1C[C@@H](N)C[C@H]1C(=O)N[C@@H](CC(=O)O)C(=O)N2
B20: Intermediate 8 (peptide)
peptide: PDCAWHLGELVWCTP
modifications: residue 1 = (2S,4S)-4-aminoproline; residue 15 = D-Pro; backbone cyclised head to tail; disulfide Cys3-Cys13; 4-amino group of residue 1 acylated (linker only in a drawing; the mass fits hex-5-ynoyl)
B21: Compound 51 (peptide)
peptide: cyclo(PDCAWHLGELVWCT[dP])
modifications: disulfide 3-13; not fully specified (residue 1); also: conjugate: hex-5-ynoyl peptide (Intermediate 48) clicked to one 6-(trifluoromethyl)pyrazin-2-ylamino sugar azide
B22: Compound 80 (peptide)
peptide: PDCAWHLGELVWCTP
modifications: not fully specified; residue 1 = (2S,4S)-4-aminoproline; residue 15 = D-Pro; backbone cyclised head to tail; disulfide Cys3-Cys13; 4-amino group of residue 1 acylated with the butanoyl-triazole linker to the ASGPR ligand
B23: Compound 84 (peptide)
peptide: PDCAWHLGELVWCTP
modifications: residue 1 = (2S,4S)-4-aminoproline; residue 15 = D-Pro; backbone cyclised head to tail; disulfide Cys3-Cys13; 4-amino group of residue 1 acylated with the linker to the sugar ligands
B24: Compound 85 (peptide)
peptide: PDCAWHLGELVWCTP
modifications: residue 1 = (2S,4S)-4-aminoproline; residue 15 = D-Pro; backbone cyclised head to tail; disulfide Cys3-Cys13; 4-amino group of residue 1 acylated with the linker to the sugar ligands
B25: Compound 86 (peptide)
peptide: PDCAWHLGELVWCTP
modifications: residue 1 = (2S,4S)-4-aminoproline; residue 15 = D-Pro; backbone cyclised head to tail; disulfide Cys3-Cys13; 4-amino group of residue 1 acylated with the linker to the sugar ligands
B26: Compound 91 (peptide)
peptide: PDCAWHLGELVWCTP
modifications: not fully specified; residue 1 = (2S,4R)-4-aminoproline; residue 15 = D-Pro; backbone cyclised head to tail; disulfide Cys3-Cys13; 4-amino group of residue 1 acylated with the linker to the ASGPR ligand
B27: Compound 92 (peptide)
peptide: cyclo(PDCAWHLGELVWCT[dP])
modifications: disulfide 3-13; not fully specified (residue 1); also: linker and ASGPR ligand(s) not given here
B28: Compound 94 (peptide)
peptide: cyclo(PDCAWHLGELVWCT[dP])
modifications: disulfide 3-13; not fully specified (residue 1); also: 4-amino group of residue 1 acylated with linker to ASGPR ligands
B29: Compound 95 (peptide)
peptide: cyclo(PDCAWHLGELVWCT[dP])
modifications: disulfide 3-13; not fully specified (residue 1); also: 4-amino group of residue 1 acylated with linker to ASGPR ligands

These binders were tested against IgG (assay: SPR, IgG immobilised on CM5 chip, compound as analyte; value from the legend of the grade (++++ = Kd <100 nM)).
B1 was tested, and the Kd was under 100 nM. In the case of B2, the Kd is reported as under 100 nM. Binder B3 has a Kd of under 100 nM. In the case of B4, the Kd is reported as under 100 nM. B5 was tested, and the Kd was under 100 nM. With B6 the Kd was under 100 nM. cyclo(PDCAWHLGELVWCT[dP]) (disulfide 3-13; not fully specified (residue 1)) [Intermediate 9] gave a Kd of under 100 nM. B7 gave a Kd of under 100 nM. With B8 the Kd was under 100 nM. B9 showed a Kd of under 100 nM.

The binders below were run against IgG (assay: SPR, IgG immobilised on CM5 chip, compound as analyte; value from the legend of the grade (**** = Kd <100 nM)).
In the case of B2, the Kd is reported as under 100 nM. B3 showed a Kd of under 100 nM. In the case of B7, the Kd is reported as under 100 nM. B8 was tested, and the Kd was under 100 nM. B9 showed a Kd of under 100 nM. Binder B10 has a Kd of under 100 nM. Work on cyclo(PDCAWHLGELVWCT[dP]) (disulfide 3-13; not fully specified (residue 1); also: conjugate from acid A32) [Compound 62] yielded a Kd of under 100 nM. B11 gave a Kd of under 100 nM. B12 was tested, and the Kd was under 100 nM. With B13 the Kd was under 100 nM. Binder B14 has a Kd of under 100 nM. Work on B15 yielded a Kd of under 100 nM. In the case of B16, the Kd is reported as under 100 nM. For B17, the Kd was under 100 nM. Work on B18 yielded a Kd of under 100 nM. In the case of B19, the Kd is reported as under 100 nM. With B20 the Kd was under 100 nM. For B21, the Kd was under 100 nM. B22 was tested, and the Kd was under 100 nM. In the case of B23, the Kd is reported as under 100 nM. For B24, the Kd was under 100 nM. For B25, the Kd was under 100 nM. With cyclo(PDCAWHLGELVWCT[dP]) (disulfide 3-13; not fully specified (residue 1)) [Intermediate 30] the Kd was under 100 nM. B26 was tested, and the Kd was under 100 nM. B27 was tested, and the Kd was under 100 nM. Binder cyclo(PD[(S)‑2‑aminohex‑5‑enoic acid]AWHLGELVW[(S)‑2‑aminopent‑4‑enoic acid]T[dP]) (staple 3-13) [Intermediate 31] has a Kd of under 100 nM. For B28, the Kd was under 100 nM. For B29, the Kd was under 100 nM.
